Tested on: MS2 coat protein
Assay: apparent KD of MS2 coat protein; designed switch direction (-1 OFF switch, 1 ON switch): -1; higher = weaker reporter binding
In short: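 Designed RNA switches were transcribed on Illumina chips by stalled E. coli RNA polymerase and titrated with SNAP-549-labelled MS2 coat protein from 0.7 or 1.5 nM, doubling to 3 µM. Step length ran from 0.8–1.5 h at the lowest concentration to 10–20 min at the highest. The apparent KD is the median over clusters for each design, from curve-fitted normalised cluster fluorescence.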

[1] = input ligand: microRNA oligo, concentration not stated
[2] = Eterna round: R95, input ligand: FMN 200 uM
[3] = Eterna round: R95, input ligand: microRNA oligo, concentration not stated
[4] = Eterna round: R95, input ligand: none

Sequence | apparent KD of MS2 coat protein (input ligand: FMN 200 uM) | apparent KD of MS2 coat protein [1] | apparent KD of MS2 coat protein (input ligand: none) | apparent KD of MS2 coat protein [2] | apparent KD of MS2 coat protein [3] | apparent KD of MS2 coat protein [4]
AAUUAACAUGUAGGAUAUCUGCACGUGUAGUGCAGAGAAGGACAUGAGGAUCACCCAUGUAUAGCGACUUCGGUCGCAAUAAUU [ENG1/2-B3] (Eterna round: R96, puzzle: Exclusion NG 1) | 313 nM | 119 nM | 140 nM |  |  | 
UUUUGGCAUGUAGGAUAUGGGUCCGAUUAGGAUUUAGAAGGACAUGAGGAUCACCCAUGUGCAUUUAAUUGGUCUUUUUUUUUU [EXclNG1-LROPPY15] (Eterna round: R96, puzzle: Exclusion NG 1) |  | 80 nM |  |  |  | 
CUGUAACGAGCGUGAGCCGACAUGAGGAUCACCCAUGUGCUCGUCUUAUAACGUACUGUCACGUUAGUGAUAGUGCG [Sensor v3, turn-off variant 1 (MOD of Eli's v1-13 v.2)] (puzzle: Sensor v3, turn-off variant 1) |  |  |  | 45.9 nM | 74.7 nM | 37.3 nM
GUCUCGUCAGGAUAUGACGCUACAUUUUCUUUUUAGAAGAGUCAGAAGGGACAUGAGGAUCACCCAUGUGAUUC [Ex4 - 3 - 3] (puzzle: Exclusion 4) |  |  |  |  | 310 nM | 
GUAAGGCAUCUAGGAUAUAGUAUACGGCGAACAUGAGGAUCACCCAUGUGUCCGAAUGCGGCGAGCUAGAAGGAGAAAUUGCCC [Enuszarima] (Eterna round: R96, puzzle: Exclusion NG 2) | 51.4 nM | 25.4 nM | 33.4 nM |  |  | 
GGUGCGUUUGUGAGGAUAUGCUGGUCCUUGGUUCGGCAGAAGGCACAUGAGGAUCACCCAUGUGGUGUCGUCCC [salish99_Bmod_Ex4_046] (puzzle: Brourd's mod of Exclusion 4) |  |  |  |  | 32 nM | 
UGUUGUUACGUAGGAUAUUGUCAACAGGCAGUAGGAUAUGCGAAAGCAGAAGGACCGCCAACAGGCGAGAAGGACGGGUUAACA [pwkr exNG2 2xF7 2xFMN.3] (Eterna round: R96, puzzle: Exclusion NG 2) | 614 nM | 514 nM | 42.7 nM |  |  | 
ACACUACAUGAGGAUCACCCAUGUCAGGAUAUCGAUAUCACAACUCAUCAACCUCACUCGAGAAGGGACACAUA [wifeneedsadrink] (puzzle: Exclusion 1) |  |  |  |  | 22.1 nM | 
AGUAUUCGAGGAUAUACGUGCCAAUGAUCCAUGAGACUCCUACAUGAGGAUCACCCAUGUAGAAGGCGAAAACC [Eternabot (L1) Solution 99] (Eterna round: R97, puzzle: Exclusion 2) | 19.1 nM |  | 15.9 nM |  |  | 
GACUGGACGUGGUCUGGUAACAUGAGGAUCACCCAUGUAGGUCUAAGAACAUGCCUUUUGCACGCUCGUCUUAUAUA [JR_SV3TOV1_Sub064] (puzzle: Sensor v3, turn-off variant 1) |  |  |  | 33.3 nM | 34.8 nM | 32.7 nM
AGAUCUAGGACAGGAUAUACGGAUGUCUUCAUCGAAGAUGAAGACAUUACAUGAGGAUCACCCAUGUAGAAGGGUCCUAGAUCA [Omei Exc(NG) 2Av1] (Eterna round: R96, puzzle: Exclusion NG 2) | 13.8 nM | 10.6 nM | 13.1 nM |  |  | 
CCGGAAAGGAAGGAUAUGCUAGACGAUAGUCUAGCAGAAGGUCCUACAUGAGGAUCACCCAUGUGGCCUCCCGG [Mat - Exclusion 6 - Eli Mod - D47] (Eterna round: R97, puzzle: Exclusion 6) | 680 nM |  | 114 nM |  |  | 
AGCUGUGGCCGAGGAUAUCUAAACCUUCAAACCGAAAUAUAAUCGGACAUGAGGAUCACCCAUGUAGAGAAGGCGGUCUCAGCA [Eli eng2 - 034] (Eterna round: R96, puzzle: Exclusion NG 2) |  | 9.91 nM |  |  |  | 
CUGCUCCGUGUAGGAUAUCGCCGCACCACCCGGCGAGAAGGACAUGAGGAUCACCCAUGUAUGUUAUUAUCACGUGUGGCGCGC [Design 40] (Eterna round: R96, puzzle: Exclusion NG 1) | 17.6 nM | 11.7 nM | 15 nM |  |  | 
UGCAUGGUAGGAUAUACGGAACAUUAGGGUUUGUUAUGUGGACAUGAGGAUCACCCAUGUAGAAGGGCCGUGCU [JL-ex2-2.15 mat747 mod] (puzzle: Exclusion 2) |  |  |  |  | 40.4 nM | 
UUUGGCAGAGGAUAUACAUGAGGAUCACCCAUGUAUAAGUGGGAUGCGUGCAAAUACUGUAGAAGGCUGCCUCU [Eternabot (L2) Solution 66] (Eterna round: R97, puzzle: Exclusion 3) | 50.1 nM |  | 73 nM |  |  | 
CUGCUCCGUGUAGGAUAUGCAUACCACCACUAUGCAGAAGGACAUGAGGAUCACCCAUGUAUGUUAUUAUCACGUGAAGCGUCC [Design 19] (Eterna round: R96, puzzle: Exclusion NG 1) | 27.8 nM | 18.1 nM | 23.7 nM |  |  | 

Sequence | apparent KD of MS2 coat protein (input ligand: FMN 200 uM) | apparent KD of MS2 coat protein [1] | apparent KD of MS2 coat protein (input ligand: none) | apparent KD of MS2 coat protein [2] | apparent KD of MS2 coat protein [3] | apparent KD of MS2 coat protein [4]
AAGUACCGUCACGAAAGUGAUGGUACAACAAGUAAAUGUACAUGAGGAUCACCCAUGUCCUCAAUUGCUCGUCUUAU [Sensor 3 - 60] (puzzle: Sensor v3, turn-off variant 2) |  |  |  | 722 nM | 202 nM | 745 nM
UAUUAGCAAGCGAGUCUUCACAUGAGGAUCACCCAUGUGCUCGUCUUAUAAGGUACUGUGACGAAAGUCACGGUACC [Eli 91 v32] (Eterna round: R97, puzzle: Sensor, turn-off variant 1) | 15.4 nM |  | 14.8 nM |  |  | 
CCGCAAAUGCAGGAUAUCGUAUCGGAUACGAUACGAGAAGGGCGAACAUGAGGAUCACCCAUGUGUCCUAGCGG [Fiskers Ex 6 - 40] (puzzle: Exclusion 6) |  |  |  | 34.7 nM | 40.3 nM | 51.6 nM
ACAUGAGGAUCACCCAUGUCGAGUACAUGAGGAUCACCCAUGUAGGAUAUGGUUCGCUUUGCGUGCUAGAAGGAUAUAUGUUGA [salish99_ExNG3_r04_511] (Eterna round: R96, puzzle: Exclusion NG 3) | 780 nM | 297 nM | 457 nM |  |  | 
GCAAGAAUAGGAUAUACACCAUGCCAGCUUCUAUACAACGCACAUGAGGAUCACCCAUGUAGAAGGGUUCUCUC [Exclusion-2-#11] (Eterna round: R97, puzzle: Exclusion 2) | 336 nM |  | 323 nM |  |  | 
AAUAAUCAUGUAGGAUAUGCGUGGCGAAGCUAUGCAGAAGGACAUGAGGAUCACCCAUGUUCUAGCGUCUGCGUACAGAUGCUA [Mat - Exclusion NG 1 - Mod of JL - D79] (Eterna round: R96, puzzle: Exclusion NG 1) | 123 nM | 36.6 nM | 37.1 nM |  |  | 
AACGAUCUAGGAUAUACAUGAGGAUCACCCAUGUAAGAGCUCAAACCGAGCUCCCUCUGUAGAAGGAGGUCAAA [Atquteuson] (puzzle: Exclusion 3) |  |  |  |  | 48.5 nM | 
GAUUUAGAGCAGGAUAUCAUAGAAUUGUAUGAAUGAGAAGGGCUCACAUGAGGAUCACCCAUGUGGUCCUAGAU [JL Dibiri mod 21] (puzzle: Exclusion 6) |  |  |  |  | 21.7 nM | 
AAACCCUGAGGAUAUGCAUAACAACAAAGCCUCACGUGCCAACAUGAGGAUCACCCAUGUAGAAGGCAGGCCAA [Mod R3 Insanara 15 - Jieux - Exclusion 2] (Eterna round: R97, puzzle: Exclusion 2) | 20.7 nM |  | 15.3 nM |  |  | 
GUGUAGUCAGGAUAUACAGAGGAAGAUAAUACAAUAUAAGUACAUGAGGAUCACCCAUGUAGAAGGGACAGUGU [Excluse me!! 10 - Jieux - Exclusion 2] (puzzle: Exclusion 2) |  |  |  |  | 25.7 nM | 
GCUGCUAGAGGAUAUACAUGAGGAUCACCCAUGUGAAAUUAUAGUGAGGAAAUGAAAAGUAGAAGGCUAGUAGA [Mod of Mat 16 - Jieux - Exclusion 3] (Eterna round: R97, puzzle: Exclusion 3) | 381 nM |  | 36.2 nM |  |  | 
GUCAGCUCGUCAGGAUAUACAUGCGUGCUUCGGCACGAAUUUAAGAUCACAUGAGGAUCACCCAUGUAGAAGGGACGAGCUGAU [ENG2/3-B2] (Eterna round: R96, puzzle: Exclusion NG 2) | 819 nM | 441 nM | 600 nM |  |  | 
CGUACUGAAGUCAGGAUAUUGUCUCGGAUACGAAACAAGAAGGGACAUGAGGAUCACCCAUGUAGACAGUACGA [Malc #30 mod 3] (puzzle: Brourd's mod of Exclusion 4) |  |  |  | 19.3 nM | 20.5 nM | 24.9 nM
AAAAAGUCAGGAUAUGUAGCAAAAGGUGAUCAAAAAAAGCUACAGAAGGGACAUGAGGAUCACCCAUGUAAAAA [Ex4: 937] (Eterna round: R96, puzzle: Exclusion 4) | 284 nM | 162 nM | 183 nM |  |  | 
CCUCGACAUGAGGAUCACCCAUGUCAGGAUAUUGUGUUUUGGGUUUUUUACCUUUAGGCAAGAAGGGAUGUGUG [LRO-Excl1-17] (puzzle: Exclusion 1) |  |  |  |  | 16.1 nM | 
AUGGCAAAGUUAGGAUAUGCAGUCUCCAAGACUGCAGAAGGAACGGUCCUCCUCCCUGAAACAUGAGGAUCACCCAUGUAAAGC [Eternabot solution 45] (Eterna round: R96, puzzle: Exclusion NG 1) | 56.4 nM | 53.7 nM | 93.8 nM |  |  | 
GGCGGACAUGAGGAUCACCCAUGUAAGGAUAUUAGGCGAUCGUCGAUAGACGAUAGCCUGAGAAGGUACGCGCC [Mat - Exclusion 1 - Eli Mod - D14] (Eterna round: R97, puzzle: Exclusion 1) | 18.6 nM |  | 17.1 nM |  |  | 
